Test results as given in the supplement of paper PMC7877785.
± gives the uncertainty stated by the source.

Experiment: self-splicing fitness, log relative to wild type (ln ratio); higher = more splicing; Tetrahymena group I intron in knt gene, E. coli kanamycin selection, DiMSum; sequences stand for … in CUCUCU…GGAGGGAAAAGUUAUCAGGCAUGCACCUGGUAGCUAGUCUUUAAACCAAUAGAUUGCAUCGGUUUAAAAGGCAAGACCGUCAAAUUGCGGGAAAGGGGUCAACAGCCGUUCAGUACCAAGUCUCAGGGGAAACUUUGAGAUGGCCUUGCAAAGGGUAUGGUAAUAAGCUGACGGACAUGGUCCUAACCACGCAGCCAAGUCCUAAGUCAACAGAUCUUCUGUUGAUAUGGAUGCAGUUCACAGACUAAAUGUCGGUCGGGGAAGAUGUAUUCUUCUCAUAAGAUAUAGUCGGACCUCUCCUUAAUGGGAGCUAGCGGAUGAAGUGAUGCAACACUGGAGCCGCUGGGAACUAAUUUGUAUGCGAAAGUAUAUUGAUUAGUUUUGGAGUACUCGUGGUCG
How it was run: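 Six replicate transformations of E. coli BL21(DE3) with a pET-22b(+) library were grown overnight at 37°C or 30°C. The library randomised all eight P1ex-region intron nucleotides, the intron lying in the knt kanamycin-resistance gene, and plates were LB agar with or without 25 μg/mL kanamycin plus 100 μg/mL carbenicillin, 50 μM IPTG and 0.2% rhamnose. Pooled colonies were amplicon-sequenced on an Illumina HiSeq 2500, and fitness is the DiMSum error-weighted combination of wild-type-normalised replicate fold changes, kanamycin versus none.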

Which “self-splicing fitness (ln)” value (30 °C) does the source give for AACCAGCAAUAUUACGAAGG here?
Its value is -3.19 ± 0.23.

What about the “self-splicing fitness (ln)” value (37 °C) of the same sequence?
Its value is -1.8 ± 0.22.

What does the source list for AAUAAGCAAUAUUACGACAU?
self-splicing fitness (ln) (30 °C): -0.117 ± 0.012; self-splicing fitness (ln) (37 °C): 0.0514 ± 0.032

What does the source list for CUCCAGCAAUAUUACGAGAU?
self-splicing fitness (ln) (30 °C): -2.99 ± 0.19; self-splicing fitness (ln) (37 °C): -3.15 ± 0.21

For ACCUAGCAAUAUUACGAACG, which “self-splicing fitness (ln)” value (30 °C) is on record?
Its value is -1.25 ± 0.12.

And the “self-splicing fitness (ln)” value (37 °C)?
Its value is -1.07 ± 0.19.

What does the source list for GGGAAGCAAUAUUACGUAAC?
self-splicing fitness (ln) (30 °C): -2.91 ± 0.26; self-splicing fitness (ln) (37 °C): -1.06 ± 0.18

With AGCCAGCAAUAUUACGCGCC as the sequence, how does the “self-splicing fitness (ln)” value (30 °C) read?
Its value is -2.18 ± 0.15.

And the “self-splicing fitness (ln)” value (37 °C)?
The value was -1.74 ± 0.23.

Which “self-splicing fitness (ln)” value (30 °C) does the source give for UGAUAGCAAUAUUACGGGUU here?
Its value is -3.88 ± 0.23.

And the “self-splicing fitness (ln)” value (37 °C)?
Its value is -1.98 ± 0.17.

For CAAAAGCAAUAUUACGCGCG, which “self-splicing fitness (ln)” value (30 °C) is on record?
Its value is -0.71 ± 0.082.

And the “self-splicing fitness (ln)” value (37 °C)?
Its value is -0.59 ± 0.09.

For CAAUAGCAAUAUUACGCCGC, which “self-splicing fitness (ln)” value (30 °C) is on record?
Its value is -2.12 ± 0.22.

What about the “self-splicing fitness (ln)” value (37 °C) of the same sequence?
Its value is -2.72 ± 0.4.

For GGUUAGCAAUAUUACGGUCA, which “self-splicing fitness (ln)” value (30 °C) is on record?
The value was 0.387 ± 0.31.

What about the “self-splicing fitness (ln)” value (37 °C) of the same sequence?
Its value is -1.03 ± 0.12.

For ACACAGCAAUAUUACGGUUU, which “self-splicing fitness (ln)” value (30 °C) is on record?
The value was -1.05 ± 0.04.

What about the “self-splicing fitness (ln)” value (37 °C) of the same sequence?
Its value is -0.00178 ± 0.06.

Which results are given for CCAUAGCAAUAUUACGAGGU?
self-splicing fitness (ln) (30 °C): -3.37 ± 0.26; self-splicing fitness (ln) (37 °C): -2.67 ± 0.23

With AGGGAGCAAUAUUACGAUGU as the sequence, how does the “self-splicing fitness (ln)” value (30 °C) read?
Its value is -1.22 ± 0.098.

And the “self-splicing fitness (ln)” value (37 °C)?
Its value is -2.13 ± 0.19.

For ACAGAGCAAUAUUACGGGGU, which “self-splicing fitness (ln)” value (30 °C) is on record?
Its value is -4.03 ± 0.34.

And the “self-splicing fitness (ln)” value (37 °C)?
The value was -2.39 ± 0.3.

What does the source list for UACCAGCAAUAUUACGCUUG?
self-splicing fitness (ln) (30 °C): -1.01 ± 0.073; self-splicing fitness (ln) (37 °C): -0.79 ± 0.095

Which “self-splicing fitness (ln)” value (37 °C) does the source give for AAUGAGCAAUAUUACGAAAC here?
The value was -1.27 ± 0.32.

What does the source list for CCCCAGCAAUAUUACGCUCU?
self-splicing fitness (ln) (30 °C): -3.81 ± 0.22; self-splicing fitness (ln) (37 °C): -2.47 ± 0.26

With CAUUAGCAAUAUUACGGAGU as the sequence, how does the “self-splicing fitness (ln)” value (30 °C) read?
The value was -3.87 ± 0.19.

And the “self-splicing fitness (ln)” value (37 °C)?
Its value is -2.7 ± 0.2.

Which “self-splicing fitness (ln)” value (30 °C) does the source give for GGUGAGCAAUAUUACGGGAG here?
Its value is -1.79 ± 0.28.

What about the “self-splicing fitness (ln)” value (37 °C) of the same sequence?
The value was -2.68 ± 0.48.

For GCUUAGCAAUAUUACGUCUA, which “self-splicing fitness (ln)” value (30 °C) is on record?
The value was -1.96 ± 0.26.

What about the “self-splicing fitness (ln)” value (37 °C) of the same sequence?
Its value is -0.873 ± 0.2.

What does the source list for UCGUAGCAAUAUUACGGAGG?
self-splicing fitness (ln) (30 °C): -2.53 ± 0.27; self-splicing fitness (ln) (37 °C): -3.14 ± 0.3

With UGACAGCAAUAUUACGCACG as the sequence, how does the “self-splicing fitness (ln)” value (30 °C) read?
Its value is -0.996 ± 0.093.

And the “self-splicing fitness (ln)” value (37 °C)?
Its value is -0.312 ± 0.14.

What does the source list for GUAAAGCAAUAUUACGGGCA?
self-splicing fitness (ln) (30 °C): -0.131 ± 0.13; self-splicing fitness (ln) (37 °C): -0.0319 ± 0.15

What does the source list for AGAAAGCAAUAUUACGCUCA?
self-splicing fitness (ln) (30 °C): -0.775 ± 0.15; self-splicing fitness (ln) (37 °C): 1.19 ± 0.18

For UGGAAGCAAUAUUACGAAUG, which “self-splicing fitness (ln)” value (30 °C) is on record?
Its value is -0.927 ± 0.11.

What about the “self-splicing fitness (ln)” value (37 °C) of the same sequence?
Its value is -0.211 ± 0.12.

With GUACAGCAAUAUUACGUAAU as the sequence, how does the “self-splicing fitness (ln)” value (30 °C) read?
The value was -1.66 ± 0.087.

What about the “self-splicing fitness (ln)” value (37 °C) of the same sequence?
The value was -0.807 ± 0.11.

With GGCGAGCAAUAUUACGUUUC as the sequence, how does the “self-splicing fitness (ln)” value (30 °C) read?
Its value is -2.07 ± 0.23.

What about the “self-splicing fitness (ln)” value (37 °C) of the same sequence?
The value was -1.99 ± 0.26.

Which “self-splicing fitness (ln)” value (30 °C) does the source give for UUUGAGCAAUAUUACGUAGA here?
Its value is -1.7 ± 0.22.

What about the “self-splicing fitness (ln)” value (37 °C) of the same sequence?
Its value is -0.802 ± 0.24.

What does the source list for GGUAAGCAAUAUUACGAAGU?
self-splicing fitness (ln) (30 °C): -1.93 ± 0.31; self-splicing fitness (ln) (37 °C): -1.78 ± 0.25

With UGGUAGCAAUAUUACGUUCU as the sequence, how does the “self-splicing fitness (ln)” value (30 °C) read?
Its value is -1.48 ± 0.12.

What about the “self-splicing fitness (ln)” value (37 °C) of the same sequence?
The value was -0.725 ± 0.14.

Which “self-splicing fitness (ln)” value (30 °C) does the source give for GCCCAGCAAUAUUACGAUGA here?
The value was -2.14 ± 0.18.

And the “self-splicing fitness (ln)” value (37 °C)?
Its value is -0.287 ± 0.14.

Which “self-splicing fitness (ln)” value (30 °C) does the source give for GCGCAGCAAUAUUACGGCCU here?
Its value is -0.201 ± 0.061.

What about the “self-splicing fitness (ln)” value (37 °C) of the same sequence?
Its value is 0.128 ± 0.072.

Which “self-splicing fitness (ln)” value (37 °C) does the source give for GCAGAGCAAUAUUACGCACU here?
The value was -3.43 ± 0.43.

What does the source list for AAUCAGCAAUAUUACGGUCG?
self-splicing fitness (ln) (30 °C): -0.214 ± 0.048; self-splicing fitness (ln) (37 °C): 0.0375 ± 0.065

Which “self-splicing fitness (ln)” value (30 °C) does the source give for AAGAAGCAAUAUUACGUGAA here?
The value was -2.16 ± 0.1.

What about the “self-splicing fitness (ln)” value (37 °C) of the same sequence?
The value was -0.97 ± 0.091.

Which results are given for GGUAAGCAAUAUUACGCUCG?
self-splicing fitness (ln) (30 °C): -0.274 ± 0.13; self-splicing fitness (ln) (37 °C): -0.892 ± 0.23

Which “self-splicing fitness (ln)” value (30 °C) does the source give for CUAUAGCAAUAUUACGCUCG here?
Its value is -1.74 ± 0.12.

What about the “self-splicing fitness (ln)” value (37 °C) of the same sequence?
The value was -0.741 ± 0.14.

For AUGAAGCAAUAUUACGAGGG, which “self-splicing fitness (ln)” value (30 °C) is on record?
The value was -2.64 ± 0.21.

What about the “self-splicing fitness (ln)” value (37 °C) of the same sequence?
The value was -2.83 ± 0.28.

For UAGAAGCAAUAUUACGGGUU, which “self-splicing fitness (ln)” value (30 °C) is on record?
Its value is -4.54 ± 0.34.

What about the “self-splicing fitness (ln)” value (37 °C) of the same sequence?
Its value is -1.87 ± 0.2.

Which “self-splicing fitness (ln)” value (30 °C) does the source give for AGGUAGCAAUAUUACGCGCA here?
The value was -0.305 ± 0.016.

And the “self-splicing fitness (ln)” value (37 °C)?
Its value is 0.00281 ± 0.034.

Which “self-splicing fitness (ln)” value (30 °C) does the source give for CUAUAGCAAUAUUACGGCGG here?
Its value is -0.513 ± 0.12.

And the “self-splicing fitness (ln)” value (37 °C)?
The value was -0.641 ± 0.14.

What does the source list for CAAUAGCAAUAUUACGAAUU?
self-splicing fitness (ln) (30 °C): -3.51 ± 0.26; self-splicing fitness (ln) (37 °C): -2.23 ± 0.18
